Data taken from PMC3336205, “The generation and evaluation of two panels of epitope-matched mouse IgG1, IgG2a, IgG2b and IgG3 antibodies specific for Plasmodium falciparum and Plasmodium yoelii merozoite surface protein 1–19 (MSP1_(19))” (Experimental Parasitology, 2012).

Legend:
[1] = target: T1, recombinant PfMSP1_(19)-GST (Plasmodium falciparum, strain not …, UniProt P04933); assay: SPR; BIAcore X; PfMSP1_19-GST (50 μg/ml) amine-coupled to a CM5 chip; purified IgGs injected at 2, 1, 0.5, 0.25 and 0.125 μM, 50 μL at 10 μL/min; control Ag in flow cell 2; conditions: both partners purified
T1 construct: merozoite surface protein 1 (MSP1), Plasmodium falciparum, C-terminal 19-kDa region (MSP1_19); also called C-terminal 19-kDa region of Plasmodium falciparum merozoite surface protein 1; source: recombinant, purified (Burghaus and Holder, 1994)

[2] = target: T2, recombinant PyMSP1_(19)-GST (Plasmodium yoelii yoelii (strain not …, UniProt P13828)); assay: ELISA; five micrograms of recombinant purified antigen (PfMSP1_19-GST or PyMSP1_19-GST) coated; culture supernatant of secreting clones; detected with HRP anti-mouse IgG Fc-specific or anti-mouse kappa light chain secondary antibodies; read at 450 nm; conditions: one partner purified
T2 construct: merozoite surface protein 1 (MSP1), Plasmodium yoelii, C-terminal 19-kDa region (MSP1_19), homologous to PfMSP1_19; also called P. yoelii MSP1_(19); source: recombinant, purified (Lewis, 1989)
T2 sequence (P13828 whole entry, looked up): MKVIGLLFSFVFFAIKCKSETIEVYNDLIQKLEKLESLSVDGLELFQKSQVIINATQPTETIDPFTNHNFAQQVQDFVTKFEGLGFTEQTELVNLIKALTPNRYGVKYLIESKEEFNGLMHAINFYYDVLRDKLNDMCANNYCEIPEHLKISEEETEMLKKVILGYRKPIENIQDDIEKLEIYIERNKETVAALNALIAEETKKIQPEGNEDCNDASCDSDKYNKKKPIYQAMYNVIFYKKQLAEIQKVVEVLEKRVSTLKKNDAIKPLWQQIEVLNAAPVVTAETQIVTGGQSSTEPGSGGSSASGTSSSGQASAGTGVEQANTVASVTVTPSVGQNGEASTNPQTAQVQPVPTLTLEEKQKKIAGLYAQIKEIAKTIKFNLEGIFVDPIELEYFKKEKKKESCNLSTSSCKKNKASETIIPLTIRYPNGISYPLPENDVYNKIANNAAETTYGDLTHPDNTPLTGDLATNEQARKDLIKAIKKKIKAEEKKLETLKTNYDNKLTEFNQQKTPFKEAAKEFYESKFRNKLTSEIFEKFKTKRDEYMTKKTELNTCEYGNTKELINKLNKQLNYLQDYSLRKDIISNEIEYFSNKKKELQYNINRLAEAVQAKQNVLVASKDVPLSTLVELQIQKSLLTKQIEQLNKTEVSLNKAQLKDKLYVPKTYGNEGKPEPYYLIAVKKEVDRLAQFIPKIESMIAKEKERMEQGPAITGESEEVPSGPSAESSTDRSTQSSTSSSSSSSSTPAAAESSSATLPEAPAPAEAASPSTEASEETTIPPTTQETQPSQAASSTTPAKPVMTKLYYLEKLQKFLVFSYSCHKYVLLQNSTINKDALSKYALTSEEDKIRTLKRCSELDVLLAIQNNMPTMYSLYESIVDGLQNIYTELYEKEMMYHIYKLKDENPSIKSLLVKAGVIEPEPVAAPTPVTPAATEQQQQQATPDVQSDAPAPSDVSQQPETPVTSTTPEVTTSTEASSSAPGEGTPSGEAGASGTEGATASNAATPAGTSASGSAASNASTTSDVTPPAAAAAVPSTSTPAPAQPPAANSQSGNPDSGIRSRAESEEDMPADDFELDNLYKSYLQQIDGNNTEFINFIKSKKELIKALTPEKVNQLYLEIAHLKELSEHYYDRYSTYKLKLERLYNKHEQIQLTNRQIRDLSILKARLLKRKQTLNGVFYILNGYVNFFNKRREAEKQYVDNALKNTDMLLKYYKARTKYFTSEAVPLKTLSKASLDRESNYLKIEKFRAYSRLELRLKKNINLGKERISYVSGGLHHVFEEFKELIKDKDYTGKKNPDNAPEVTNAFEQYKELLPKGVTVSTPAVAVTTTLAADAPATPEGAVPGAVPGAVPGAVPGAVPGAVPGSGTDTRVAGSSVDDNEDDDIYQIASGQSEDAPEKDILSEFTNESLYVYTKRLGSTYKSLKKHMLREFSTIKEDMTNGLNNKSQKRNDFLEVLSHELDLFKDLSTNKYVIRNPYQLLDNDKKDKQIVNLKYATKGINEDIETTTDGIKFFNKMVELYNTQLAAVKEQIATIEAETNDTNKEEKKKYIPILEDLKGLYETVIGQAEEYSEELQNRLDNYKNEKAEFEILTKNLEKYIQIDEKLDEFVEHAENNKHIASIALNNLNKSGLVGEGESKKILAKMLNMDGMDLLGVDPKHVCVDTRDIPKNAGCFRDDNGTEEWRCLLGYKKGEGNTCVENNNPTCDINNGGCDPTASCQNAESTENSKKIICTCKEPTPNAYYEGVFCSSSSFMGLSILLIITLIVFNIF

B1: mouse IgG1-C1 (PfMSP1_(19)-specific recombinant mouse IgG1) (antibody, V domains shown)
VH: EVQLVQSGPEVKKPGASVKVSCKTSGYSFTSYDINWVRQAPGQGLEWMGRISPYNGKTDYTQTLRGRVTMSTDTSTTTVYLELRSLKSDDTAVYYCAREGVWFAELLSWGEGTLVTVSS
VL: DIVMTQTPGTLSLSPGERATLSCRASQSVSGNYLAWYQQKPGQAPRLLIHGSSDRAAGTPDRFSGRGSGTDFTLTISRLEPEDFAVYYCQQYCSSPFTFGPGTKVEIK
notes: VH of C1 (anti-PfMSP1_19), as the VH of m7; mouse IgG1 heavy-chain constant region, amplified from BALB/c genomic DNA; VL of C1, as the VL of m7; mouse kappa light chain constant region, amplified from BALB/c genomic DNA; Plasmids pVH-C1-mIgG1 and pVL-C1-mouse kappa; also called mIgG1-C1; murine IgG1-C1; source: HEK-293T, stably transfected; culture supernatant, and purified (protein G-Sepharose)
In the case of B1, the Ka [1] is reported as 4.48e+07 M⁻¹ and the Kd [1] is reported as 23 nM.

B2: mouse IgG2b-C1 (PfMSP1_(19)-specific recombinant mouse IgG2b) (antibody, V domains shown)
VH: EVQLVQSGPEVKKPGASVKVSCKTSGYSFTSYDINWVRQAPGQGLEWMGRISPYNGKTDYTQTLRGRVTMSTDTSTTTVYLELRSLKSDDTAVYYCAREGVWFAELLSWGEGTLVTVSS
VL: DIVMTQTPGTLSLSPGERATLSCRASQSVSGNYLAWYQQKPGQAPRLLIHGSSDRAAGTPDRFSGRGSGTDFTLTISRLEPEDFAVYYCQQYCSSPFTFGPGTKVEIK
notes: VH of C1 (anti-PfMSP1_19), as the VH of m7; mouse IgG2b heavy-chain constant region, amplified from genomic DNA; VL of C1, as the VL of m7; mouse kappa light chain constant region, amplified from BALB/c genomic DNA; Plasmids pVH-C1-mIgG2b and pVL-C1-mouse kappa; also called mIgG2b-C1; source: CHO-K1, stably transfected; culture supernatant, and purified (protein G-Sepharose)
For B2, the Ka [1] was 1.2e+07 M⁻¹ and the Kd [1] was 84.1 nM.

B3: mouse IgG2a-C1 (PfMSP1_(19)-specific recombinant mouse IgG2a) (antibody, V domains shown)
VH: EVQLVQSGPEVKKPGASVKVSCKTSGYSFTSYDINWVRQAPGQGLEWMGRISPYNGKTDYTQTLRGRVTMSTDTSTTTVYLELRSLKSDDTAVYYCAREGVWFAELLSWGEGTLVTVSS
VL: DIVMTQTPGTLSLSPGERATLSCRASQSVSGNYLAWYQQKPGQAPRLLIHGSSDRAAGTPDRFSGRGSGTDFTLTISRLEPEDFAVYYCQQYCSSPFTFGPGTKVEIK
notes: VH of C1 (anti-PfMSP1_19), as the VH of m7; mouse IgG2a heavy-chain constant region, amplified from genomic DNA; VL of C1, as the VL of m7; mouse kappa light chain constant region, amplified from BALB/c genomic DNA; Plasmids pVH-C1-mIgG2a and pVL-C1-mouse kappa; also called mIgG2a-C1; source: CHO-K1, stably transfected; culture supernatant, and purified (protein G-Sepharose)
B3 gave a Ka [1] of 3.32e+07 M⁻¹ and a Kd [1] of 30.1 nM.

B4: mouse IgG3-C1 (PfMSP1_(19)-specific recombinant mouse IgG3) (antibody, V domains shown)
VH: EVQLVQSGPEVKKPGASVKVSCKTSGYSFTSYDINWVRQAPGQGLEWMGRISPYNGKTDYTQTLRGRVTMSTDTSTTTVYLELRSLKSDDTAVYYCAREGVWFAELLSWGEGTLVTVSS
VL: DIVMTQTPGTLSLSPGERATLSCRASQSVSGNYLAWYQQKPGQAPRLLIHGSSDRAAGTPDRFSGRGSGTDFTLTISRLEPEDFAVYYCQQYCSSPFTFGPGTKVEIK
notes: VH of C1 (anti-PfMSP1_19), as the VH of m7; mouse IgG3 heavy-chain constant region, amplified from genomic DNA; VL of C1, as the VL of m7; mouse kappa light chain constant region, amplified from BALB/c genomic DNA; Plasmids pVH-C1-mIgG3 and pVL-C1-mouse kappa; also called mIgG3-C1; source: CHO-K1, stably transfected; culture supernatant, and purified (protein G-Sepharose)
Work on B4 yielded a Ka [1] of 2.33e+07 M⁻¹ and a Kd [1] of 31.1 nM.

B5: human IgG1-C1 (JS1), parental human IgG1 antibody (antibody, V domains shown)
VH: EVQLVQSGPEVKKPGASVKVSCKTSGYSFTSYDINWVRQAPGQGLEWMGRISPYNGKTDYTQTLRGRVTMSTDTSTTTVYLELRSLKSDDTAVYYCAREGVWFAELLSWGEGTLVTVSS
VL: DIVMTQTPGTLSLSPGERATLSCRASQSVSGNYLAWYQQKPGQAPRLLIHGSSDRAAGTPDRFSGRGSGTDFTLTISRLEPEDFAVYYCQQYCSSPFTFGPGTKVEIK
notes: VH of C1 (anti-PfMSP1_19); human IgG1 heavy-chain constant region; VL of C1; light-chain constant region of pVKExpress C1; IgG1; also called hIgG1-C1; (h)IgG1-C1
B5 showed a Ka [1] of 3.94e+07 M⁻¹ and a Kd [1] of 23 nM.

B6: mouse IgG1-B10 (PyMSP1_(19)-specific recombinant mouse IgG1) (antibody, V domains shown)
VH: QVQLQQSGPELVKPGASVKVSCKASGYAFTSYNMYWVKQSHGKSLEWIGYIDPYNGGTSYNQKLKGKATLTVDKSSSTAYIHLNSLTSEDSAVYYCTIHYYGYGGFAYWGQGTTVTSS
VL: DIELTQSTAIMSASPGEKVTMTCSASSSVRYMYWYQQKPGSSPRLLIYDTSKLASGVPVRFSGSGSGTSYSLAISRMEAEDAASYYCQQWSSYPPTLGGGTKLEIK
notes: VH of B10 (anti-PyMSP1_19), from pB10-VH/5; mouse IgG1 heavy-chain constant region, amplified from BALB/c genomic DNA; VL of B10, from pB10-VL/10; mouse kappa light chain constant region, amplified from BALB/c genomic DNA; Plasmids pVH-B10-mIgG1 and pVL-B10-mouse kappa; source: HEK-293T, stably transfected; culture supernatant
B6: binds [2].

B7: mouse IgG3-B10 (PyMSP1_(19)-specific recombinant mouse IgG3) (antibody, V domains shown)
VH: QVQLQQSGPELVKPGASVKVSCKASGYAFTSYNMYWVKQSHGKSLEWIGYIDPYNGGTSYNQKLKGKATLTVDKSSSTAYIHLNSLTSEDSAVYYCTIHYYGYGGFAYWGQGTTVTSS
VL: DIELTQSTAIMSASPGEKVTMTCSASSSVRYMYWYQQKPGSSPRLLIYDTSKLASGVPVRFSGSGSGTSYSLAISRMEAEDAASYYCQQWSSYPPTLGGGTKLEIK
notes: VH of B10 (anti-PyMSP1_19), from pB10-VH/5; mouse IgG3 heavy-chain constant region, amplified from genomic DNA; VL of B10, from pB10-VL/10; mouse kappa light chain constant region, amplified from BALB/c genomic DNA; Plasmids pVH-B10-mIgG3 and pVL-B10-mouse kappa; source: CHO-K1, stably transfected; culture supernatant
B7: binds [2].

B8: mouse IgG2b-B10 (PyMSP1_(19)-specific recombinant mouse IgG2b) (antibody, V domains shown)
VH: QVQLQQSGPELVKPGASVKVSCKASGYAFTSYNMYWVKQSHGKSLEWIGYIDPYNGGTSYNQKLKGKATLTVDKSSSTAYIHLNSLTSEDSAVYYCTIHYYGYGGFAYWGQGTTVTSS
VL: DIELTQSTAIMSASPGEKVTMTCSASSSVRYMYWYQQKPGSSPRLLIYDTSKLASGVPVRFSGSGSGTSYSLAISRMEAEDAASYYCQQWSSYPPTLGGGTKLEIK
notes: VH of B10 (anti-PyMSP1_19), from pB10-VH/5; mouse IgG2b heavy-chain constant region, amplified from genomic DNA; VL of B10, from pB10-VL/10; mouse kappa light chain constant region, amplified from BALB/c genomic DNA; Plasmids pVH-B10-mIgG2b and pVL-B10-mouse kappa; source: CHO-K1, stably transfected; culture supernatant
B8: binds [2].

B9: mouse IgG2a-B10 (PyMSP1_(19)-specific recombinant mouse IgG2a) (antibody, V domains shown)
VH: QVQLQQSGPELVKPGASVKVSCKASGYAFTSYNMYWVKQSHGKSLEWIGYIDPYNGGTSYNQKLKGKATLTVDKSSSTAYIHLNSLTSEDSAVYYCTIHYYGYGGFAYWGQGTTVTSS
VL: DIELTQSTAIMSASPGEKVTMTCSASSSVRYMYWYQQKPGSSPRLLIYDTSKLASGVPVRFSGSGSGTSYSLAISRMEAEDAASYYCQQWSSYPPTLGGGTKLEIK
notes: VH of B10 (anti-PyMSP1_19), from pB10-VH/5; mouse IgG2a heavy-chain constant region, amplified from genomic DNA; VL of B10, from pB10-VL/10; mouse kappa light chain constant region, amplified from BALB/c genomic DNA; Plasmids pVH-B10-mIgG2a and pVL-B10-mouse kappa; source: CHO-K1, stably transfected; culture supernatant
B9: binds [2].
